# Source: patent US20090226437A1 (Genentech, published 2009)
# Substitutions are numbered along the chain they refer to. In names and notes the source's numbering stands.
# B1: chimeric Fib504 Fab (Fab, V domains shown)
# VH: EVQLQESGPGLVKPSQSLSLTCSVTGFFITNNYWGWIRKFPGNKMEWMGYISYSGSTSYNPSLKSRISITRDTSKNQFFLQLNSVTTEDTATYYCAMTGSSGYFDFWGPGTMVTVSS
# VL: DVVMTQSPATLSVTPGERISLSCRASESVDTYLHWYQQKPNESPRLLIKYASQSISGIPSRFSGSGSGTDFTLSINGVELEDLSIYYCQQGNSLPNTFGAGTKLELKR
# notes: Rat Fib504 variable domains in a chimeric Fab; the constant domains are not specified
# B2: Fib504K-RF graft (Fib504K graft in the RF acceptor framework), Fab (Fab, V domains shown)
# VH: EVQLVESGGGLVQPGGSLRLSCAASGFFITNNYWGWVRQAPGKGLEWVGYISYSGSTSYNPSLKSRFTISRDTSKNTFYLQMNSLRAEDTAVYYCAMTGSSGYFDFWGQGTLVTVSS
# VL: DIQMTQSPSSLSASVGDRVTITCRASESVDTYLHWYQQKPGKAPKLLIKYASQSISGVPSRFSGSGSGTDFTLTISSLQPEDFATYYCQQGNSLPNTFGQGTKVEIKR
# notes: number not given; also called hu504K-RF graft
# B3: Fib504-RF (Fib504 graft in the RF acceptor framework), Fab displayed on phage (Fab, name in Kabat numbering, V domains shown)
# VH: B2 VH
# VL: B2 VL with K49Y
# notes: It is built from the Fib504 graft chains with the RF framework changes; Tested as Fab on phage; also called hu504-RF
# B4: Variant hu504.16, Fab (Fab, name in Kabat numbering, V domains shown)
# VH: B2 VH
# VL: B2 VL with Y32L
# notes: Clone from the Fib504K-RF library with an HVR-L1 change; Tested as Fab; also called Variant 504.16
# B5: Variant hu504.5, Fab (Fab, name in Kabat numbering, V domains shown)
# VH: B2 VH
# VL: B2 VL with T31S, Y32L
# notes: Tested as Fab; also called Variant 504.5
# B6: Variant hu504.32, Fab (Fab, V domains shown)
# VH: B2 VH
# VL: B2 VL with T31D, Y32L
# notes: T31D and Y32L in the light chain of the hu504 Kgraft; Tested as Fab; also called Variant 504.32; humanized variant 504.32
# B7: Fib504 graft (direct HVR graft of rat Fib504 into the human acceptor framework), Fab displayed on phage (Fab, V domains shown)
# VH: B2 VH with R71A, F78A
# VL: B2 VL with K49Y
# notes: Tested as monovalent Fab-g3 on phage (VH-CH1 fused to truncated P3); also called hu504 graft; humanized504 graft
# B8: Fib504 Kgraft (HVR graft that also includes VL position 49K), Fab displayed on phage (Fab, V domains shown)
# VH: B2 VH with R71A, F78A
# VL: B2 VL
# notes: Tested as Fab on phage; also called hu504 Kgraft; hu504K graft
# Assays:
# [1] = biological target: alphaEbeta7 on alphaEbeta7-transfected 293 cells (human) (UniProt P38570); assay: cell adhesion inhibition, alphaEbeta7 293 cells on coated huE-Cadherin, experiment 1 of 3
# Chain of alphaEbeta7 on alphaEbeta7-transfected 293 cells (human) (P38570 19-1179, chain 1 of 2): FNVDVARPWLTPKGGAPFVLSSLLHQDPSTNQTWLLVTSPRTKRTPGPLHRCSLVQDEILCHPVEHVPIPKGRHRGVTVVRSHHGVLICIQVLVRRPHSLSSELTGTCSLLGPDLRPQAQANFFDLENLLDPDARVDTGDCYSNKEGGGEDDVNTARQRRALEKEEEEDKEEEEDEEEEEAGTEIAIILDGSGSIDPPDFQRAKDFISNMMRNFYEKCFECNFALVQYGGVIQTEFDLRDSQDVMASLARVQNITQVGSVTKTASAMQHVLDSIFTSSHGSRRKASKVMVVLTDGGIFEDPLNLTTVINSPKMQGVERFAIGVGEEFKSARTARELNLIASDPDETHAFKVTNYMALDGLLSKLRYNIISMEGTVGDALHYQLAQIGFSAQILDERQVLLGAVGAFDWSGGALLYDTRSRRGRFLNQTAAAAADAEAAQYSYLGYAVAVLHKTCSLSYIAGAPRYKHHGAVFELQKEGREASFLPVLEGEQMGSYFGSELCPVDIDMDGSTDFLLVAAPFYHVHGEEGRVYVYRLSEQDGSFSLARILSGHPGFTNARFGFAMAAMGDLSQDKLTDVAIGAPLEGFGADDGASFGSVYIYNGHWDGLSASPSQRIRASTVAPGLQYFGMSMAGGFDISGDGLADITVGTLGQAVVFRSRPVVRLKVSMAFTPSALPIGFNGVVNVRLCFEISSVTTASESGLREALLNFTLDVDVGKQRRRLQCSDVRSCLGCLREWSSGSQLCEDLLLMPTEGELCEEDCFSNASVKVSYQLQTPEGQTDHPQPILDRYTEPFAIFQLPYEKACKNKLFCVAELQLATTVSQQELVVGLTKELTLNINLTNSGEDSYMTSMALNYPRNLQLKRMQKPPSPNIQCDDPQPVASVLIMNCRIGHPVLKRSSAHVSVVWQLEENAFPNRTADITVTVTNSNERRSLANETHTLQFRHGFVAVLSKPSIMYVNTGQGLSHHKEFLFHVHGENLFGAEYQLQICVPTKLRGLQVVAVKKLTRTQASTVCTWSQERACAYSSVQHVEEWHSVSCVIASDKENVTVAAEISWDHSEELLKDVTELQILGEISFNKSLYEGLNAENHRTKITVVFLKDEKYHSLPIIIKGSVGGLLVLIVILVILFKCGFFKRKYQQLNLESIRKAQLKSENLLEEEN
# Chain of alphaEbeta7 on alphaEbeta7-transfected 293 cells (human) (P26010 20-798, chain 2 of 2, further chain): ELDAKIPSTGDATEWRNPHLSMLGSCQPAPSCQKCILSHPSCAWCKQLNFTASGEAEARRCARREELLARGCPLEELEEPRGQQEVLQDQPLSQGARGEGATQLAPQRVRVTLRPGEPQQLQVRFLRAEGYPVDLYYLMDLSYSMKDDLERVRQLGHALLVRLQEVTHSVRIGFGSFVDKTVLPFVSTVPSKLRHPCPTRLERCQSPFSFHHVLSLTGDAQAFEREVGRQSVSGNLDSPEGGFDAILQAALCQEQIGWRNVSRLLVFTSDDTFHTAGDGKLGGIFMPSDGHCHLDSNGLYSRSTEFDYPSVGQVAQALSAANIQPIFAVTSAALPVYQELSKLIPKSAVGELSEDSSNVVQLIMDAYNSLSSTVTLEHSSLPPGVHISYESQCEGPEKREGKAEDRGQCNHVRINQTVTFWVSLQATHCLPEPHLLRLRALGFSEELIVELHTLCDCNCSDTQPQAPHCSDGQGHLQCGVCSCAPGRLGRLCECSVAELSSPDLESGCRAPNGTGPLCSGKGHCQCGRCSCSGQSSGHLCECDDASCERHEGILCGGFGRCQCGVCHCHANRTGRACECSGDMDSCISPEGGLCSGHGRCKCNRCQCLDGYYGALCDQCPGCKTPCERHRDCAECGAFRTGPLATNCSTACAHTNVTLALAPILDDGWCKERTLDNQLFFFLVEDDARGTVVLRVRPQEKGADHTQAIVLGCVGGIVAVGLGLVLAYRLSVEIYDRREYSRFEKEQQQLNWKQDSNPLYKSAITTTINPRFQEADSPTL
# [2] = biological target: alphaEbeta7 on alphaEbeta7-transfected 293 cells (human) (UniProt P38570); assay: cell adhesion inhibition, alphaEbeta7 293 cells on coated huE-Cadherin, experiment 2 of 3
# [3] = biological target: alphaEbeta7 on alphaEbeta7-transfected 293 cells (human) (UniProt P38570); assay: cell adhesion inhibition, alphaEbeta7 293 cells on coated huE-Cadherin, experiment 3 of 3
# [4] = biological target: T1, Full length human integrin alpha4beta7 (expressed in 293 cells, purified by Fib504 affinity chromatography) (human, UniProt P13612 34-1032; P26010 20-798); assay: SPR (BIAcore-3000), Fab immobilized, alpha4beta7 injected
# T1 construct: mature; also called immobilized alpha4beta7
# T1 sequence (P13612 34-1032, chain 1 of 2): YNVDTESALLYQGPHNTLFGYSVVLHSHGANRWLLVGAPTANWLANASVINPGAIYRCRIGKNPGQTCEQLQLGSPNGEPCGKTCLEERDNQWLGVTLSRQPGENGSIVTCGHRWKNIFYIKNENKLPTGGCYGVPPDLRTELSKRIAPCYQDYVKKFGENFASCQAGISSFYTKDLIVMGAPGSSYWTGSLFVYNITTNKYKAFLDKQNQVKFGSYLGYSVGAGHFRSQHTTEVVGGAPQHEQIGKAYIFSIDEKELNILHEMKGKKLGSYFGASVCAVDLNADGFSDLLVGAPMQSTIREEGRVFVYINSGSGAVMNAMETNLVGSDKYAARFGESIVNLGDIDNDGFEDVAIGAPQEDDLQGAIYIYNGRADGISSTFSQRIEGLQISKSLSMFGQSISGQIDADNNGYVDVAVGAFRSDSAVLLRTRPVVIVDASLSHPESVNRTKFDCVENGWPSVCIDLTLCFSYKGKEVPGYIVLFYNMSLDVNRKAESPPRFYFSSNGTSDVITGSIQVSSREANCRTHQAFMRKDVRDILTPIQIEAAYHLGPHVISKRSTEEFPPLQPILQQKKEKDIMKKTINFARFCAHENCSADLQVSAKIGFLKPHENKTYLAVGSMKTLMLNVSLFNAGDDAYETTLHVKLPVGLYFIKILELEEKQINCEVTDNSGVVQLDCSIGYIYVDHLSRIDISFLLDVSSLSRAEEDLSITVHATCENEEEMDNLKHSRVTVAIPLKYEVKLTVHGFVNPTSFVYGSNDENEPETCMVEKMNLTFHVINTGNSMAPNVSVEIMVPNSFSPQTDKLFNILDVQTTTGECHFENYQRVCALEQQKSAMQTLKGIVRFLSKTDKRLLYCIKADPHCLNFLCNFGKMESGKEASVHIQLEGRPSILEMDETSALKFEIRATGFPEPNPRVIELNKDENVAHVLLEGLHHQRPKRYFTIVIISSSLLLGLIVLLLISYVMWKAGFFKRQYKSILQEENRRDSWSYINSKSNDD
# T1 sequence (P26010 20-798, chain 2 of 2): as the sequence (P26010 20-798, chain 2 of 2, further chain) above
# Experimental: (§1) Affinity determinations were performed by surface plasmon resonance using a BIAcore™-3000 (Biacore, Piscataway, N.J.). Humanized Fib504 Fab variants were immobilized in 10 mM acetate pH 4.5 (ranging from 250 to 1500 response units (RU)) on a CM5 sensor chip and 2-fold dilutions of human integrin alpha4beta7 (1.5 to 770 nM) in TBSM containing 2% n-octylglucoside were injected. Each sample was analyzed with 5-minute association and 5 to 60-minute dissociation times. After each injection, the chip was regenerated using three 1-minute injections of 8 M urea. Binding response was corrected by subtracting the RU from a blank flow cell. A 1:1 Languir model of simultaneous fitting of kₒₙ and koff was used for kinetics analysis.
# Libraries were generated as before using a soft randomization strategy simultaneously at each of the 6 HVRs for the Fib504K-RL and Fib504K-RF grafts and sorted on immobilized alpha4beta7 for 4 rounds of selection as described above. Enrichment was only observed for the library based on the Fib504K-RF graft. […] Most clones contained the change Y32L; in addition position 31 was frequently changed to D, S, P or N (FIG. 1C). In addition to the starting graft, Fib504K-RF, 3 clones were expressed and purified as Fab protein and further analyzed by Biacore as described above. […] The results of the Biacore analysis are shown in Table 3, below, and indicate that selected variation in the HVRs and/or framework regions, disclosed herein, generated antagonist antibodies to alpha4beta7 having improved affinity relative to the starting antibody.
# [5] = biological target: T1, Full length human integrin alpha4beta7 …; assay: BIAcore (column head 'BIAcore Affinity Assay (nM)'); per paragraph 379 the Fab was immobilised on a CM5 chip and human integrin alpha4beta7 injected. The row shows unchanged L1 … and L2 KYASQSIS in the 'Fib504•K RF framework', i.e. the starting Fib504K-RF graft
# Experimental: as §1
# (§2) Libraries were generated as before using a soft randomization strategy simultaneously at each of the 6 HVRs for the Fib504K-RL and Fib504K-RF grafts and sorted on immobilized alpha4beta7 for 4 rounds of selection as described above. Enrichment was only observed for the library based on the Fib504K-RF graft. […] Most clones contained the change Y32L; in addition position 31 was frequently changed to D, S, P or N (FIG. 1C). In addition to the starting graft, Fib504K-RF, 3 clones were expressed and purified as Fab protein and further analyzed by Biacore as described above. […]
# [6] = biological target: T1, Full length human integrin alpha4beta7 …; assay: phage binding assay (OD): Fab displayed on phage, immobilised alpha4beta7, albumin as control coat
# [7] = biological target: T1, Full length human integrin alpha4beta7 …; assay: BIAcore (column head 'BIAcore Affinity Assay (nM)'); per paragraph 379 the Fab was immobilised on a CM5 chip and human integrin alpha4beta7 injected
# Experimental: as §1, §2
# [8] = biological target: T1, Full length human integrin alpha4beta7 …; assay: SPR (BIAcore), Fab; reference Fib504 Fab
# Experimental: as §1, §2
# [9] = biological target: T1, Full length human integrin alpha4beta7 …; assay: phage-displayed Fab on immobilized alpha4beta7
molecule,measurement,setting,value
"HP2/1 (anti-alpha4, control) (antibody)",IC90,[1],> 100 nM
same,IC90,[2],> 100 nM
same,IC90,[3],> 100 nM
B1,Kd,[4],11 nM
B2,Kd,[5],132 nM
B3,binding result,[6],no binding
B4,Kd,[4],23 nM
same,Kd,[7],23.4 nM
B5,Kd,[4],9 nM
B6,fold tighter binding relative to the starting rat antibody,[8],3 fold
same,Kd,[4],3 nM
same,Kd,[7],3.5 nM
B7,binding result,[9],no binding
B8,binding result,[9],no binding
